Reference: article PMC11252000, “MFSD1 with its accessory subunit GLMP functions as a general dipeptide uniporter in lysosomes” (Nature Cell Biology, 2024)
Changes are numbered by the printed parent chain. Names may count otherwise. Blank lines part the entries; values can stand above or below the molecule they belong to. Where a SMILES comes first, the peptide text is derived from it.

Assays:
[1] = molecular target: T1, MFSD1 (MFSD1WT, mmMFSD1, MFSD1-strep) (Mus musculus, UniProt Q9DC37, Y56A); assay: proteoliposome uptake, pyranine fluorescence; format: biochemical; details: pH 6.8, 22 °C, valinomycin; 2.5 mM peptide
T1 construct: full length; N-terminal Twin-Strep-tag + HRV 3C site; Expi293F; purified in DDM/CHS; liposomes POPE:POPG:CHS for transport
T1 sequence (Q9DC37 1-464 Y56A): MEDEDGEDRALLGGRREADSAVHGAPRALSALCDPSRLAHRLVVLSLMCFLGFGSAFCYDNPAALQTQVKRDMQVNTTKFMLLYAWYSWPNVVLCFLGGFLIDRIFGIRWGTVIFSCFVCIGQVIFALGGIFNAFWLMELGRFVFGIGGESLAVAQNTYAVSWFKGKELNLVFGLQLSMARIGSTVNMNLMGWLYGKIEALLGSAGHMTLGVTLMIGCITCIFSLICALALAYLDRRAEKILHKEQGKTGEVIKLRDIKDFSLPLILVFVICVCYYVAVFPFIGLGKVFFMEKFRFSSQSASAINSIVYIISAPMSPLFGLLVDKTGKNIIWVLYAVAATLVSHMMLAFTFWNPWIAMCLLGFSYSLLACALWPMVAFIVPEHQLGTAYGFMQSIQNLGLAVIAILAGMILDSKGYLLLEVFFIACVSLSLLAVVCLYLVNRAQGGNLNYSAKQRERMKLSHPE

[2] = molecular target: MFSD1-strep (mouse major facilitator superfamily domain containing 1 protein with N-terminal Twin-Strep-tag) (mouse) (UniProt Q9DC37)
[3] = molecular target: T2, GLMP–MFSD1 (GLMP–MFSD1-strep fusion) (Mus musculus, UniProt Q9DC37); assay: cryo-EM, […] Å map with extra density; format: binding; details: 20 mM His–Ala; central cavity, outward-open; peptide not unambiguously placed; model 8R8Q (called apo) built in this map
T2 construct: single-chain fusion GLMP-GSAGSAAGSGEF-MFSD1; C-terminal 3C site + Twin-Strep-tag; Expi293F; DDM/CHS; with Glycosylated lysosomal membrane protein
T2 sequence (Q9DC37 1-464): T1 sequence (Q9DC37 1-464 Y56A) with A56Y
T2 sequence (Q9JHJ3 36-404 partner): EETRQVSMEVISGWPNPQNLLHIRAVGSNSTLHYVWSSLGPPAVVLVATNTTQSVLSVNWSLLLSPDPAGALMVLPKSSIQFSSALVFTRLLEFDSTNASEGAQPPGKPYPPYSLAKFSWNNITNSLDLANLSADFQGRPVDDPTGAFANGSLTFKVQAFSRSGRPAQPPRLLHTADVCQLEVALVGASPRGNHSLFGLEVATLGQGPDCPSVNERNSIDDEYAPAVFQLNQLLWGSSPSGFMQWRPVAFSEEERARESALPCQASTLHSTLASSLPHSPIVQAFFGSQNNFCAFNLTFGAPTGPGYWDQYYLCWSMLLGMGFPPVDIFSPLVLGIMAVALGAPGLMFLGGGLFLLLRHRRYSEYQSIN

[4] = molecular target: T3, MFSD1 (MFSD1WT, mmMFSD1, MFSD1-strep) (Mus musculus, UniProt Q9DC37); assay: nanoDSF thermal shift titration; format: binding
T3 construct: full length; N-terminal Twin-Strep-tag + HRV 3C site; Expi293F; purified in DDM/CHS; liposomes POPE:POPG:CHS for transport
T3 sequence (Q9DC37 1-464): T1 sequence (Q9DC37 1-464 Y56A) with A56Y

[5] = molecular target: T3, MFSD1 (MFSD1WT, mmMFSD1, MFSD1-strep); assay: nanoDSF thermal shift; format: binding; details: 5 mM ligand, pH 7.5, DDM/CHS
[6] = substrate: CC(C)C[C@H](N)C(=O)N[C@@H](C)C(=O)O; assay: isotope tracer uptake, LC–MS/MS of Leu(d3) in oocytes; format: cell-based, Mus musculus; details: pH 5.0, room temperature, labelled compound, hydrochloride salt, Extended Data Fig. 4a legend gives 4.4 mM for the displayed fit
[7] = substrate: C[C@H](NC(=O)[C@@H](N)CCCCN)C(=O)O; assay: TEVC current in Xenopus oocytes; format: cell-based, Mus musculus; details: pH 5.0, −40 mV, room temperature (20 °C), hydrobromide salt
[8] = substrate: C[C@H](NC(=O)[C@@H](N)Cc1c[nH]cn1)C(=O)O; assay: proteoliposome uptake, pyranine fluorescence; format: biochemical, Mus musculus; details: pH 6.8, 22 °C, valinomycin-driven membrane potential approx. −100 mV
[9] = substrate: N[C@@H](Cc1c[nH]cn1)C(=O)N[C@@H](CO)C(=O)O; assay: proteoliposome uptake, pyranine fluorescence; format: biochemical, Mus musculus; details: pH 6.8, 22 °C, valinomycin-driven membrane potential approx. −100 mV
[10] = molecular target: T4, MFSD1 as it stands in the GLMP–MFSD1 fusion construct (mouse, UniProt Q9DC37 1-464); assay: cryo-EM structure; purified GLMP–MFSD1 fusion in 20 mM HEPES pH 7.5, 150 mM NaCl, 0.015% DDM, 0.0015% CHS; apo (4.2 Å) and dialysed against 20 mM His–Ala (4.1 Å); outward-open conformation; details: both partners purified
T4 construct: mouse MFSD1, UniProt Q9DC37; C-terminal part of the fusion m3; written apart for the pair row of the structure; also called MFSD1out; source: Expi293F, transiently transfected, purified as part of GLMP–MFSD1-strep; not shown: Twin-Strep, C-terminal, kept
T4 sequence: T1 sequence (Q9DC37 1-464 Y56A) with A56Y

Molecule: N[C@@H](Cc1c[nH]cn1)C(=O)N[C@@H](CO)C(=O)O [His-Ser] (H-His-Ser-OH)
uptake rate vs MFSD1WT [1]: ~ 50 % reduction

Molecule: His–Ala dipeptide
KM of His–Ala uptake into MFSD1 proteoliposomes (pyranine assay) [2]: 119 µM

Molecule: C[C@H](NC(=O)[C@@H](N)Cc1c[nH]cn1)C(=O)O [His–Ala] (H-His-Ala-OH)
cryo-EM, 4.1 Å map with extra density [3]: revealed an additional density for GLMP–MFSD1His–Ala
Kd [4]: 6.7 ± 0.55 mM
uptake rate vs MFSD1WT [1]: ~ 50 % reduction

B1: MFSD1–GLMP oocytes (MFSD1L11A/L12A-EmGFP + GLMPY400A-mKate2) (Mus musculus; L11A/L12A) (protein)
chain: T1 sequence (Q9DC37 1-464 Y56A) with L11A, L12A, A56Y
notes: heterodimer at plasma membrane of Xenopus laevis oocytes; lysosomal sorting mutants; EmGFP and mKate2 fusions; with Glycosylated lysosomal membrane protein
Km [6]: 5600 ± 1600 µM
Km [7]: 2600 ± 400 µM

B2: MFSD1 (MFSD1WT, mmMFSD1, MFSD1-strep) (Mus musculus) (protein)
chain: T1 sequence (Q9DC37 1-464 Y56A) with A56Y
notes: full length; N-terminal Twin-Strep-tag + HRV 3C site; Expi293F; purified in DDM/CHS; liposomes POPE:POPG:CHS for transport
Km [8]: 119.1 ± 59.3 µM
Km [9]: 24.4 ± 13.5 µM

Other lines, results leading:

ΔTm [5]: 14 °C
Molecule: CC(C)C[C@H](NC(=O)[C@@H](N)CC(C)C)C(=O)O [Leu–Leu]

binding result [10]: binds
B3: GLMP as it stands in the GLMP–MFSD1 fusion construct (natural protein, mouse, UniProt Q9JHJ3 36-404, looked up)
chain: T2 sequence (Q9JHJ3 36-404 partner)
modifications: N-glycans on Asn85, Asn94, Asn157, Asn228 and Asn331
notes: mouse GLMP, UniProt Q9JHJ3; N-terminal part of the fusion m3; written apart for the pair row of the structure; source: Expi293F, transiently transfected, purified as part of GLMP–MFSD1-strep
